# Where no end group is shown, it is not given here. [ ]: non-standard residue; d: D form. Cha = N[C@@H](CC1CCCCC1)C(=O)O
# T1: wild-type human PTHR (human, UniProt Q03431 27-593)
# T1 construct: whole, on cells; also called PTHR-WT; intact PTHR
# T1 sequence (looked up): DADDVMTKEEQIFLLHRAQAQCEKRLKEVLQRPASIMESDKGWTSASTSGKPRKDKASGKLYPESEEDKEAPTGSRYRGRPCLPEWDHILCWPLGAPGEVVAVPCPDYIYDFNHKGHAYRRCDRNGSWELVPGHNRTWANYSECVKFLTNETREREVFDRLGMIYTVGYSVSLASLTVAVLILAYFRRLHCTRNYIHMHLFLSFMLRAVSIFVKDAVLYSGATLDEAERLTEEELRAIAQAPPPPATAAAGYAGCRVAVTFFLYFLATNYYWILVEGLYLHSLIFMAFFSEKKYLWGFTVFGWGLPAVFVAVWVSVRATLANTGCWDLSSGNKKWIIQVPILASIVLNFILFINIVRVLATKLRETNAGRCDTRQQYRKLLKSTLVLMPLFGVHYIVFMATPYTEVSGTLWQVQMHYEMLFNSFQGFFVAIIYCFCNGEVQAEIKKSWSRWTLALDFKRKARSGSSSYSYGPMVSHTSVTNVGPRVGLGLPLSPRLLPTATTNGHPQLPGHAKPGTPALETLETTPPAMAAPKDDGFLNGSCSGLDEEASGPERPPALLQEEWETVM
# T2: rat PTHR endogenously expressed in ROS 17/2.8 cells (rat, UniProt P25961 27-591)
# T2 sequence (looked up): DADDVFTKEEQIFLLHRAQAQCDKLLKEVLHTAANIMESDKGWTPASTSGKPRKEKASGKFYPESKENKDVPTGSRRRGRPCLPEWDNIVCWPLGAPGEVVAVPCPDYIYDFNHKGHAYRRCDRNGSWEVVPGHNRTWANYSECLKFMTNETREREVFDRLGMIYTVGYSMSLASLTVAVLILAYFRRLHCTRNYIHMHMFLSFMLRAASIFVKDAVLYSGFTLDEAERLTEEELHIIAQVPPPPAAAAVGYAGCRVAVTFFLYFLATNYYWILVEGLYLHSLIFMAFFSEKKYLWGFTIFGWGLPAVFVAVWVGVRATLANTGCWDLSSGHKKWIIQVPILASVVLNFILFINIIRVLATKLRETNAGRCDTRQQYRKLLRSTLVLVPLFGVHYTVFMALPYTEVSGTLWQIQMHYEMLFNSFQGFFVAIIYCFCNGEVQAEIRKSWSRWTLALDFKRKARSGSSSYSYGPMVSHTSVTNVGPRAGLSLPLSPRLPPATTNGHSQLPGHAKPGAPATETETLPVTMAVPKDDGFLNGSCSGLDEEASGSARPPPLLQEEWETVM
# B1: [Ala^1,Arg^19]hPTH(1-31)NH2 Arg^20→Cha (peptide)
# peptide: AVSEIQLMHNLGKHLNSMR[Cha]VEWLRKKLQDV-NH2
# modifications: N-terminus assumed
# SMILES: CC[C@H](C)[C@H](NC(=O)[C@H](CCC(=O)O)NC(=O)[C@H](CO)NC(=O)[C@@H](NC(=O)[C@H](C)N)C(C)C)C(=O)N[C@@H](CCC(N)=O)C(=O)N[C@@H](CC(C)C)C(=O)N[C@@H](CCSC)C(=O)N[C@@H](Cc1c[nH]cn1)C(=O)N[C@@H](CC(N)=O)C(=O)N[C@@H](CC(C)C)C(=O)NCC(=O)N[C@@H](CCCCN)C(=O)N[C@@H](Cc1c[nH]cn1)C(=O)N[C@@H](CC(C)C)C(=O)N[C@@H](CC(N)=O)C(=O)N[C@@H](CO)C(=O)N[C@@H](CCSC)C(=O)N[C@@H](CCCNC(=N)N)C(=O)N[C@@H](CC1CCCCC1)C(=O)N[C@H](C(=O)N[C@@H](CCC(=O)O)C(=O)N[C@@H](Cc1c[nH]c2ccccc12)C(=O)N[C@@H](CC(C)C)C(=O)N[C@@H](CCCNC(=N)N)C(=O)N[C@@H](CCCCN)C(=O)N[C@@H](CCCCN)C(=O)N[C@@H](CC(C)C)C(=O)N[C@@H](CCC(N)=O)C(=O)N[C@@H](CC(=O)O)C(=O)N[C@H](C(N)=O)C(C)C)C(C)C
# notes: also called Cha^20 analog
# B2: [Ala^1,Arg^19]hPTH(1-31)NH2 (peptide)
# peptide: AVSEIQLMHNLGKHLNSMRRVEWLRKKLQDV-NH2
# notes: also called [Ala^1,Arg^19]PTH(1-31)NH2; [Ala^1,Arg^19]PTH(1-31)
# Target: T1, wild-type human PTHR
# Test: competition binding, HKRK-B7 cells, 125I-PTH(1-34) tracer
# Outline: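 Intact HKRK-B7 cells incubated 4 h at 15° C with ¹²⁵I-[Nle⁸,²¹,Tyr³⁴]ratPTH(1-34)NH₂ tracer and unlabeled peptide at 3×10⁻⁹ to 1×10⁻⁵ M; lysate gamma-counted. Non-specific binding defined with 1×10⁻⁶ M PTH(1-31)NH₂. Specific binding expressed as % of that without competitor.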
row,IC50 [nM],Binder
1,807,SVSEIQLMHNLGKHLNSMERVEWARKKLQDV-NH2 [PTH(1-31)NH2 Leu^24→Ala]
2,57,SVSEIQLMHNLGKHLNAMERVEWLRKKLQDV-NH2 [PTH(1-31)NH2 Ser^17→Ala]
3,1310,SVSEIQLMHNLGKHLNSMERVEALRKKLQDV-NH2 [PTH(1-31)NH2 Trp^23→Ala]
4,125,SVSEIQLMHNLGKHLNSMERVEWLRAKLQDV-NH2 [PTH(1-31)NH2 Lys^26→Ala]
5,92,SVSEIQLMHNLGKHLNSAERVEWLRKKLQDV-NH2 [PTH(1-31)NH2 Met^18→Ala]

# Target: T1, wild-type human PTHR
# Test: as above
# Remark: another data set of the same source
fold reduction in binding affinity vs PTH(1-31)NH2 [fold],fold change in binding affinity vs PTH(1-31)NH2 [fold],"fold reduction in binding affinity vs [Ala^1,Arg^19]PTH(1-31)NH2 [fold]",Binder
12,,,SVSEIQLMHNLGKHLNSMERVEWARKKLQDV-NH2 [PTH(1-31)NH2 Leu^24→Ala]
,≤ 2,,SVSEIQLMHNLGKHLNAMERVEWLRKKLQDV-NH2 [PTH(1-31)NH2 Ser^17→Ala]
,,≥ 150,"AVSEIQLMHNLGKHLNSMRRVEWERKKLQDV-NH2 [[Ala^1,Arg^19]hPTH(1-31)NH2 Leu^24→Glu]"
19,,,SVSEIQLMHNLGKHLNSMERVEALRKKLQDV-NH2 [PTH(1-31)NH2 Trp^23→Ala]
,≤ 2,,SVSEIQLMHNLGKHLNSMERVEWLRAKLQDV-NH2 [PTH(1-31)NH2 Lys^26→Ala]
,,≥ 150,"AVSEIQLMHNLGKHLNSMREVEWLRKKLQDV-NH2 [[Ala^1,Arg^19]hPTH(1-31)NH2 Arg^20→Glu]"
,≤ 2,,SVSEIQLMHNLGKHLNSAERVEWLRKKLQDV-NH2 [PTH(1-31)NH2 Met^18→Ala]
,,120,B1

# Target: T1, wild-type human PTHR
# Test: as above
# Remark: another data set of the same source
# Outline: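 Intact HKRK-B7 cells stably expressing hPTHR incubated 4 h at 15° C with ¹²⁵I-PTH(1-34) tracer and unlabeled peptide (3×10⁻⁹ to 1×10⁻⁵ M). Nonspecific binding defined with 1×10⁻⁶ M PTH(1-31)NH₂. Bound activity counted after lysis and expressed as % specific binding without competitor; values in nM, mean ± s.e.m.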
row,IC50 [nM],Binder
1,> 10000,"AVSEIQLMHNLGKHLNSMRRVEWERKKLQDV-NH2 [[Ala^1,Arg^19]hPTH(1-31)NH2 Leu^24→Glu]"
2,> 10000,"AVSEIQLMHNLGKHLNSMREVEWLRKKLQDV-NH2 [[Ala^1,Arg^19]hPTH(1-31)NH2 Arg^20→Glu]"
3,4740,B1
4,38,B2
5,10400,"AVSEIQLMHNLGKHLNSMRRVEWLRKKEQDV-NH2 [[Ala^1,Arg^19]hPTH(1-31)NH2 Leu^28→Glu]"
6,6040,"AVSEIQLMHNLGKHLNSMRRVEELRKKLQDV-NH2 [[Ala^1,Arg^19]hPTH(1-31)NH2 Trp^23→Glu]"

# Target: T1, wild-type human PTHR
# Test: cell-based or functional assay
row,"inositol phosphate (IP) production, peptide at 1×10^-6 M [fold]",Binder
1,4,SVSEIQLMHNLGKHLNSMERVEWARKKLQDV-NH2 [PTH(1-31)NH2 Leu^24→Ala]
2,4,SVSEIQLMHNLGKHLNAMERVEWLRKKLQDV-NH2 [PTH(1-31)NH2 Ser^17→Ala]
3,4,SVSEIQLMHNLGKHLNSMERVEALRKKLQDV-NH2 [PTH(1-31)NH2 Trp^23→Ala]
4,4,SVSEIQLMHNLGKHLNSMERVEWLRAKLQDV-NH2 [PTH(1-31)NH2 Lys^26→Ala]
5,4,SVSEIQLMHNLGKHLNSAERVEWLRKKLQDV-NH2 [PTH(1-31)NH2 Met^18→Ala]

# Target: T2, rat PTHR endogenously expressed in ROS …
# Test: cell-based or functional assay
row,"cAMP EC50, ROS 17/2.8 cells [nM]",Binder
1,250,"AVSEIQLMHNLGKHLNSMRRVEWERKKLQDV-NH2 [[Ala^1,Arg^19]hPTH(1-31)NH2 Leu^24→Glu]"
2,59,"AVSEIQLMHNLGKHLNSMREVEWLRKKLQDV-NH2 [[Ala^1,Arg^19]hPTH(1-31)NH2 Arg^20→Glu]"
3,7.5,B1
4,0.78,B2
5,11,"AVSEIQLMHNLGKHLNSMRRVEWLRKKEQDV-NH2 [[Ala^1,Arg^19]hPTH(1-31)NH2 Leu^28→Glu]"
6,4,"AVSEIQLMHNLGKHLNSMRRVEELRKKLQDV-NH2 [[Ala^1,Arg^19]hPTH(1-31)NH2 Trp^23→Glu]"

# Target: PTHR-delNt (human) (UniProt Q03431)
# Test: competition binding, COS-7 membranes, 125I-[Aib1,3,M]PTH(1-15) tracer
IC50 [nM],fold reduction in binding affinity vs PTH(1-31)NH2 [fold],"fold reduction in binding affinity vs [Ala^1,Arg^19]PTH(1-31)NH2 [fold]","fold change in binding affinity vs [Ala^1,Arg^19]PTH(1-31)NH2 [fold]",Binder
8760,2,,,SVSEIQLMHNLGKHLNSMERVEWARKKLQDV-NH2 [PTH(1-31)NH2 Leu^24→Ala]
4580,,,,SVSEIQLMHNLGKHLNAMERVEWLRKKLQDV-NH2 [PTH(1-31)NH2 Ser^17→Ala]
1040,,< 3,,"AVSEIQLMHNLGKHLNSMRRVEWERKKLQDV-NH2 [[Ala^1,Arg^19]hPTH(1-31)NH2 Leu^24→Glu]"
7360,2,,,SVSEIQLMHNLGKHLNSMERVEALRKKLQDV-NH2 [PTH(1-31)NH2 Trp^23→Ala]
6210,,,,SVSEIQLMHNLGKHLNSMERVEWLRAKLQDV-NH2 [PTH(1-31)NH2 Lys^26→Ala]
776,,< 3,,"AVSEIQLMHNLGKHLNSMREVEWLRKKLQDV-NH2 [[Ala^1,Arg^19]hPTH(1-31)NH2 Arg^20→Glu]"
8800,,,,SVSEIQLMHNLGKHLNSAERVEWLRKKLQDV-NH2 [PTH(1-31)NH2 Met^18→Ala]
632,,,< 3,B1
397,,,,B2
974,,< 3,,"AVSEIQLMHNLGKHLNSMRRVEWLRKKEQDV-NH2 [[Ala^1,Arg^19]hPTH(1-31)NH2 Leu^28→Glu]"
434,,< 3,,"AVSEIQLMHNLGKHLNSMRRVEELRKKLQDV-NH2 [[Ala^1,Arg^19]hPTH(1-31)NH2 Trp^23→Glu]"

# Target: T2, rat PTHR endogenously expressed in ROS …
# Test: competition binding, ROS 17/2.8 cells, 125I-PTH(1-34) tracer
# Description: Receptor binding—Binding to the wild-type human PTHR in intact HKRK-B7 cells and ROS 17/2.8 cells was assessed using ¹²⁵I-PTH(1-34) as a tracer radioligand, as described (Shimizu, M., (2001) Endocrinology 142:3068-3074). In brief, the cells in 24-well plates (about 500,000 cells per well) were incubated in binding buffer containing radioligand (about 100,000 cpm per well) with or without unlabeled peptide ligand (3×10⁻⁹ to 1×10⁻⁵ M) for four hours at 15° C. The binding mixture was then removed by aspiration, the cells were rinsed three times with binding buffer, lysed in 1 M NaOH, and the entire lysate was counted for gamma-irradiation in a gamma counter. Binding to PTHR-delNt in COS-7 cell membranes was assessed in 96-well, vacuum filtration plates (Multiscreen-Durapore HV, […], Millipore Corp., Millford, Mass.) using ¹²⁵I-[Aib^{1,3},M]PTH(1-15)NH₂ as a tracer radioligand, as described (Dean, T., (2006) Mol Endocrinol 20:931-942). In brief, cell membranes (20 μg/well) were incubated in membrane binding buffer containing radioligand (30,000 cpm/well) with or without unlabeled peptide ligand (3×10⁻⁹ to 1×10⁻⁵ M) for 90 minutes at 21° C. The plates were then subject to rapid vacuum filtration, the filters were washed once with buffer, detached from the plate and counted for gamma-irradiation in a gamma counter. Non-specific binding was defined as the binding observed in the presence of 1×10⁻⁶ M PTH(1-31)NH₂ for HKRK-B7 and ROS 17/2.8 cells, and 1×10⁻⁶ M [Aib^{1,3},M]PTH(1-15)NH₂ for PTHR-delNt. Specifically bound radioactivity was calculated as a percentage of the radioactivity specifically bound in the absence of competing ligand.
# Effects on cAMP and IP signaling—Selected analogs of [Ala¹,Arg¹⁹]hPTH(1-31)NH₂ with substitutions that markedly impaired binding to HKRK-B7 cells were assessed for their capacity to bind to the PTHR in ROS 17/2.8 cells and to stimulate cAMP-signaling responses in these cells. These bone-derived cells endogenously express the rat PTHR at a more physiological level than is found in HKRK-B7 cells (approximately 80,000 PTHRs per cell vs. 950,000 PTHRs per cell) and, have generally been found (data not shown) to yield closer correlations between PTH analog binding affinity and cAMP-signaling potency than do HKRK-B7 cells, presumably due to their lower PTHR expression level.
row,IC50 [nM],Binder
1,29000,"AVSEIQLMHNLGKHLNSMRRVEWERKKLQDV-NH2 [[Ala^1,Arg^19]hPTH(1-31)NH2 Leu^24→Glu]"
2,5800,"AVSEIQLMHNLGKHLNSMREVEWLRKKLQDV-NH2 [[Ala^1,Arg^19]hPTH(1-31)NH2 Arg^20→Glu]"
3,290,B1
4,1.6,B2
5,3100,"AVSEIQLMHNLGKHLNSMRRVEWLRKKEQDV-NH2 [[Ala^1,Arg^19]hPTH(1-31)NH2 Leu^28→Glu]"
6,220,"AVSEIQLMHNLGKHLNSMRRVEELRKKLQDV-NH2 [[Ala^1,Arg^19]hPTH(1-31)NH2 Trp^23→Glu]"

# Reference: US20100081612A1 (GENERAL HOSPITAL, published 2010)
